Test results published in patent US20050009745A1, “TSG101 as inhibitor of HIV production” (priority 2001, published 2005).
Where no end group is shown, it is not given here.

How the values were obtained:
[1] = tested on: HIV-1 particles; test: Release of HIV-1 virus-like particles from transfected COS-1 cells, Western blot with anti-CA; type: cell-based
[2] = Solubility of the peptide; type: physicochemical; conditions: precluded testing at higher concentrations
[3] = target: GAL4 activation domain-Tsg101 fusion protein (wild-type human Tsg101) (yeast; human) (UniProt Q99816); test: cell-based or functional assay
[4] = target: GAL4 DNA-binding domain-p1-p6 fusion protein (yeast; HIV-1) (UniProt P04386); test: cell-based or functional assay
[5] = tested on: HIV-1 Gag; type: cell-based

With `CC(C)CC[C@@H](O)[C@](C)(O)[C@H]1CC[C@@]2(O)C3=CC(=O)[C@@H]4C[C@@H](O)[C@@H](O)C[C@]4(C)[C@H]3CC[C@]12C` [pa, pronasterone, reference compound] the “effect on virus particle release” value [1] was “no inhibitory effect”.

For ALQSRPEPTAPPEES, the “solubility of the peptide” value [2] was “limited solubility”.

In the case of “GAL4 DNA-binding domain-p1-p6 with both PTAPP motifs deleted (from UniProt P04386 1-147; P03347 435-512)”, the β-galactosidase activity (yeast 2-hybrid) [3] is reported as < 0.3%.

For “GAL4 DNA-binding domain-p1-p6 with the (LXX)4 repeat motif deleted (from UniProt P04386 1-147; P03347 435-512)”, the β-galactosidase activity (yeast 2-hybrid) (% of wild-type) [3] was 55.

In the case of “GAL4 DNA-binding domain-p1-p6 with the first PTAPP motif deleted (from UniProt P04386 1-147; P03347 435-512)”, the β-galactosidase activity (yeast 2-hybrid) (% of wild-type) [3] is reported as 50.

In the case of “GAL4 DNA-binding domain-p1-p6 with the first PTAPP motif deleted and Ala for Pro7 in the second motif (from UniProt P04386 1-147; P03347 435-512)”, the enzyme activity (β-galactosidase, yeast 2-hybrid) (% of wild-type) [3] is reported as 25.

For “GAL4 DNA-binding domain-p1-p6 with the second PTAPP motif deleted (from UniProt P04386 1-147; P03347 435-512)”, the β-galactosidase activity (yeast 2-hybrid) (% of wild-type) [3] was 25.

In the case of “GAL4 activation domain-Tsg101 Y110W (from UniProt P04386 768-881)”, the 2-hybrid assay, percent of wild-type interaction (% of wild-type) [4] is reported as 31.

With “GAL4 activation domain-Tsg101 Y113V (from UniProt P04386 768-881)” the 2-hybrid assay, percent of wild-type interaction (% of wild-type) [4] was 33.

With “GAL4 activation domain-Tsg101 with Ala for Thr67-Tyr68-Asn69 (from UniProt P04386 768-881)” the 2-hybrid assay, percent of wild-type interaction (% of wild-type) [4] was 5.

B1: SD5-59 (protein)
chain: MAVSESQLKKMVSKYKYRDLTVRETVNVITLYKDLKPVLDSYVFNDGSSRELMNLTGTIPVPYRGNTYNIPICLWLLDTYPYNPPICFVKPTSSMTIKTGKHVDANGKIYLPYLHEWKHPQSDLLGLIQVMIVVFGDEPPVFSRPISASYPPYQATGPPNTSYMPGMPGGISPYPSGYPPNPSGYPGCPYPPGGPYPATTSSQYPSQPPVTTVGPSRDGTISEDTIRASLISAVSDKLRWRMKEEMDRAQAELNALKRTEEDLKKGHQKLEEMVTRLDQEVAEVDKNIELLKKKDEELSSALEKMENQSENNDIDEVIIPTAPLYKQILNLYAEENAIEDTIFYLGEGGVIDLDVFLKHVRLLSRKQFQLRALMQKARKTAGLSDLY
modifications: left off: small tags and cut ends
For B1, the “Gag processing in released particles” value ([1]; COS cells, wild-type gag, 1 and 5 μM pa) was “accumulation of particle-associated uncleaved Gag precursor”, the “release of virus particles” value ([1]; COS cells, wild-type gag, increasing expression with 1 and 5 μM pa) was “permitted release of virus particles” and the “viral protein in P1 fraction” value [5] was “no protein was found”. For the same molecule, the “viral protein in S1 fraction” value [5] was “detectable levels of viral protein”.

B2: pIND-h-Tsg101-FLAG: wild-type human Tsg101, FLAG-tagged, inducibly over-expressed from plasmid (protein)
chain: MAVSESQLKKMVSKYKYRDLTVRETVNVITLYKDLKPVLDSYVFNDGSSRELMNLTGTIPVPYRGNTYNIPICLWLLDTYPYNPPICFVKPTSSMTIKTGKHVDANGKIYLPYLHEWKHPQSDLLGLIQVMIVVFGDEPPVFSRPISASYPPYQATGPPNTSYMPGMPGGISPYPSGYPPNPSGYPGCPYPPGGPYPATTSSQYPSQPPVTTVGPSRDGTISEDTIRASLISAVSDKLRWRMKEEMDRAQAELNALKRTEEDLKKGHQKLEEMVTRLDQEVAEVDKNIELLKKKDEELSSALEKMENQSENNDIDEVIIPTAPLYKQILNLYAEENAIEDTIFYLGEALRRGVIDLDVFLKHVRLLSRKQFQLRALMQKARKTAGLSDLY
modifications: left off: small tags and cut ends
notes: wild-type human Tsg101, FLAG-tagged, inducibly over-expressed from plasmid
With B2 the “release of immature particles containing GagΔp6” value ([1]; COS-1 cells, gagΔp6, Tsg101 overexpression, 0, 1, 5 μM pa) was “not significantly affected”, the “amount of mature CA in released virus, of the control (0 μM pa) level” value ([1]; COS-1 cells, wild-type gag, 1 μM pa inducer) was ~60% and the “amount of mature CA in released virus, of the control (0 μM pa) level” value ([1]; COS-1 cells, wild-type gag, 5 μM pa inducer) was ~30%. The “viral protein in P1 fraction” value [5] was “no detectable viral protein” and the “viral protein in S1 fraction” value [5] was “no detectable viral protein”.
